Laboratory results reported in paper PMC11561172 (Nature Communications, 2024).

Biological target: the molecule itself
Assay: cryo-EM structure

B1: RNA polymerase α subunit (natural protein, Spinacia oleracea (spinach), UniProt P06505 1-335, looked up)
chain: MVREKIRVSTQTLQWKCVESRTDSKCLHYGRFILSPLMKGQADTIGIAMRRALLGEIEGTCITRAKSEKIPHEYSTILGIQESVHEILMNLKEIVLRSNLYGTCEASICVRGPRGVTAQDIILPPYVEIVDNTQHIASLTEPIDLCIGLQLERNRGYHIKAPNNFQDGSFPIDALFMPVRNVNHSIHSYGNGNEKQEILFLEIWTNGSLTPKEALYEASRNLIDLLIPFLHAEENVNLEDNQHKVSLPLFTFHNRLAEIRKNKKKIALKFIFIDQLELPPRIYNCLKKSNIHTLLDLLNNSQEDLIKMKHFRIEDVKQIFGTLEKHFVIDLKNKR
binding result: binds
